According to US8221990B2, “Screening GPR12 receptor for substances having Nesfatin-1-like action, or which regulate Nesfatin-1 action” (Teijin Pharma Limited, priority 2007, dated 2012):

What was measured:
mouse GPR12 = molecular target: T1, mouse GPR12 (Mus musculus, UniProt P35412); test: cAMP production in CHO-K1-cell stable expression system (CHO-K1-GPR12); format: cell-based; conditions: CHO-K1-GPR12, peptide 10^-9 M, Forskolin 10^-5 M, 30 minutes
T1 construct: expressed in transfected cells
T1 sequence (P35412 1-334): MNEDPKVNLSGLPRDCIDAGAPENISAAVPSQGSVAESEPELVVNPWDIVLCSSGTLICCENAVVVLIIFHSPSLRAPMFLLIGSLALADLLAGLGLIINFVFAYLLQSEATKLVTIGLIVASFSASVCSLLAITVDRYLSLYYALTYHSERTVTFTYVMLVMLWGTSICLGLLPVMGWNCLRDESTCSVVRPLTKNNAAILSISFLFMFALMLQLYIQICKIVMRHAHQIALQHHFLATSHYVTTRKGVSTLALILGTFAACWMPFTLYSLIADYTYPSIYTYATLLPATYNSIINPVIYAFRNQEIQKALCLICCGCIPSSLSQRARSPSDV
Description: The preparation of cells stably expressing GPR12 was conducted by a conventional method, and hereinafter described briefly. A vector (pcDNA3.1-GPR12) in which a gene (cDNA) encoding mouse GPR12 (SEQ ID NO: 8) was inserted at the downstream of a CMV promoter of pcDNA3.1 (TM) (Invitrogen Corporation) was prepared, 10 μg of the vector was mixed with 250 μL of medium OPTI-MEM™ (Invitrogen Corporation), and 10 μg of Lipofectamine™ 2000 Reagent (Invitrogen Corporation) was mixed with 250 μL of medium OPTI-MEM™, 5 minutes later both mixtures were mixed, and the resultant mixture was left over at room temperature for 20 minutes to prepare a transfection reagent. Chinese hamster ovary cells (CHO-K1) [ATCC Cat. No. CCl-61] plated onto a 6-well plate at 1.5×10^6 cells/well on the previous day in advance were washed with medium OPTI-MEM™ once, and the above-mentioned transfection reagent (vector and Lipofectamine™ 2000 Reagent) was added to the cells dropwise to perform transfection. The resultant transfected cells were incubated at 37° C. for 5 hours in a CO2 incubator, and then the medium was replaced by Ham's F12 medium. Further, the next day the medium was exchanged with Ham's F12 medium containing 100 μg/mL of Geneticin® (Invitrogen Corporation), and furthermore the next day the medium was exchanged with the same medium containing 200 μg/mL of Geneticin®, and the following day the medium was exchanged with the same medium containing 700 μg/mL of Geneticin®, and after that, culturing was continued under the conditions of 37° C. and 5% CO2 in a medium containing Geneticin® at the same concentration. […]
The measured intracellular cAMP level was evaluated in terms of a ratio (Fold) of each intracellular cAMP level with respect to the mean of the intracellular cAMP level in the (−) group that is set as unity, in which CHO-K1-GPR12 cells were cultured in the medium containing no peptide.

[1] = Amount of food intake in a mouse after intraperitoneal administration; format: in vivo; conditions: C57BL/6J male mouse, 0.25 nmol per gram of body weight, 0 to 3 hours
Description: A 7-week-old C57BL/6J strain male mouse (CLEA Japan, Inc.) was used as an experimental animal. After purchasing the mouse, the mouse was raised at 22° C. in cycles of the 12-hour light period from 6 a.m. to 6 p.m. and the 12-hour dark period from 6 p.m. to 6 a.m. on the next morning with free access to pelleted feed (CLEA Japan, Inc., CE-2).
A 5 nmol aliquot of Nesfatin-1M30 (Mid-segment, SEQ ID NO: 11), M30_Ag-A (SEQ ID NO: 50), or M30_MSH-A (SEQ ID NO: 51) was dissolved in each 100 μL of saline, and each of the resultant solutions was administered intraperitoneally to a C57BL/6J mouse at a dose of 0.25 nmol per gram of body weight of the mouse. In the control group, only saline (Vehicle) was administered. Each mouse (5 mice in each group) was intraperitoneally given a single injection of a sample using a tuberculin syringe with 26 G needle, immediately before the dark period (6 p.m.).
Each mouse administered was placed in an individual cage, and the amount of food intake was determined by measuring the decreased amount of the pelleted feed during the period from 0 to 3 hours after the administration of a test substance. In the mouse administered with each test sample, the amount of food intake during 3 hours after the administration (g/3 h) is shown in FIG. 6.

intracellular cAMP level compared with the group (-) cultured in medium containing no peptide (mouse GPR12): about 5 fold
Substance: Nesfatin-1M30: mid-segment of Nesfatin-1, human-derived Nesfatin-1M30, SEQ ID NO: 11 (PDTGLYYDEYLKQVIDVLETDKHFREKLQK; listed as Homo sapiens)
amount of food intake during 3 hours after the administration compared with control group (Vehicle) [1]: significant decrease of the food intake
